From the supplement of paper PMC9112550, “Optimization of the antimicrobial peptide Bac7 by deep mutational scanning” (BMC Biology, 2022) come the findings set out here.

The data set concerns Escherichia coli TOP10. The data set can be described thus: shrunken log2 fold change of peptide-encoding DNA abundance (4.5 h post-induction vs induction); higher = less antimicrobial activity (less host growth inhibition). The conditions noted are these: time post-induction: 4.5 h; library: site-saturation at positions 5, 18, 19, 20.
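Note: peptides expressed intracellularly from a pBAD plasmid library in pooled LB shake-flask culture, induced with 0.3% L-arabinose, DNA abundance read by NGS, three biological replicates, DESeq2 with apeglm shrinkage.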

For RRIRYRPPRLPRPRPRPNKVPRP, the “shrunken log2 fold change” value is -0.596.
In the case of RRIRTRPPRLPRPRPRPACKPRP, the “shrunken log2 fold change” value was 0.172.
With RRIRTRPPRLPRPRPRPLHWPRP the figure was 0.111.
With RRIRMRPPRLPRPRPRPGIGPRP, the “shrunken log2 fold change” value was 0.638.
As to RRIRSRPPRLPRPRPRPIEPPRP, the “shrunken log2 fold change” value was 0.0268.
For RRIRCRPPRLPRPRPRPNKYPRP the value was -0.324; for RRIRSRPPRLPRPRPRPWHNPRP, -0.00544.
For RRIRARPPRLPRPRPRPINGPRP the value was -0.00875.
Consider RRIRKRPPRLPRPRPRPAASPRP, for which the “shrunken log2 fold change” value is 0.593.
For RRIRQRPPRLPRPRPRPLMLPRP the value was -0.213; for RRIRPRPPRLPRPRPRPKVVPRP, 0.454; for RRIRVRPPRLPRPRPRPVSGPRP, 0.0836.
For RRIRLRPPRLPRPRPRPEAYPRP the value was 0.0406; for RRIRNRPPRLPRPRPRPFSMPRP, -0.00235; for RRIRDRPPRLPRPRPRPCTWPRP, 0.0101.
For RRIRTRPPRLPRPRPRPLTIPRP the value was -0.315; for RRIRQRPPRLPRPRPRPILCPRP, -0.0627; for RRIRNRPPRLPRPRPRPNDSPRP, -0.235.
For the sequence RRIRCRPPRLPRPRPRPDHDPRP, the “shrunken log2 fold change” value is -0.265.
With RRIRHRPPRLPRPRPRPHHPPRP the figure was 0.0301; with RRIRYRPPRLPRPRPRPLKMPRP, -0.26; with RRIRNRPPRLPRPRPRPDVCPRP, -0.00695.
For RRIRVRPPRLPRPRPRPKSKPRP the value was -0.117.
With RRIRDRPPRLPRPRPRPWNCPRP the figure was -0.3.
Consider RRIRKRPPRLPRPRPRPQMLPRP, for which the “shrunken log2 fold change” value was -0.167.
Regarding RRIRVRPPRLPRPRPRPLFHPRP, the “shrunken log2 fold change” value is -0.311.
For RRIRMRPPRLPRPRPRPTHQPRP, the “shrunken log2 fold change” value was 0.38.
RRIRMRPPRLPRPRPRPPMDPRP: the “shrunken log2 fold change” value was determined as 0.343.
On to RRIRVRPPRLPRPRPRPIWYPRP, for which the “shrunken log2 fold change” value is -0.146.
With RRIRKRPPRLPRPRPRPECDPRP the figure was 3.35; with RRIRRRPPRLPRPRPRPNDKPRP, -0.178; with RRIRKRPPRLPRPRPRPTGWPRP, 1.44.
RRIRNRPPRLPRPRPRPMDWPRP: the “shrunken log2 fold change” value is -0.0484.
For RRIRVRPPRLPRPRPRPLRKPRP the value was 0.317; for RRIRARPPRLPRPRPRPVVEPRP, 0.322; for RRIRNRPPRLPRPRPRPVEAPRP, 0.277.
With RRIRWRPPRLPRPRPRPNRFPRP the figure was -0.0274; with RRIRERPPRLPRPRPRPVVSPRP, -0.0681; with RRIRSRPPRLPRPRPRPQLVPRP, 0.0331.
For RRIRMRPPRLPRPRPRPSIYPRP the value was -0.726; for RRIRCRPPRLPRPRPRPTMDPRP, -0.237; for RRIRPRPPRLPRPRPRPMALPRP, -0.0509.
Consider RRIRHRPPRLPRPRPRPTRLPRP, for which the “shrunken log2 fold change” value was found to be 0.189.
For RRIRSRPPRLPRPRPRPYRKPRP the value was -0.901; for RRIRARPPRLPRPRPRPWCNPRP, -0.536.
For RRIRVRPPRLPRPRPRPGVMPRP the value was -0.261; for RRIRKRPPRLPRPRPRPYVYPRP, -0.154; for RRIRHRPPRLPRPRPRPNRLPRP, 0.0234.
For RRIRKRPPRLPRPRPRPRCYPRP, the “shrunken log2 fold change” value was -0.181.
With RRIRYRPPRLPRPRPRPHTQPRP the figure was -1.1; with RRIRLRPPRLPRPRPRPNDTPRP, -0.302.
With RRIRVRPPRLPRPRPRPMQVPRP the figure was 0.121; with RRIRFRPPRLPRPRPRPRYEPRP, -0.598.
For RRIRDRPPRLPRPRPRPWRCPRP the value was 0.26.
Consider RRIRVRPPRLPRPRPRPQYGPRP, for which the “shrunken log2 fold change” value was -0.0699.
For the sequence RRIRCRPPRLPRPRPRPMYEPRP, the “shrunken log2 fold change” value is -0.264.
For RRIRSRPPRLPRPRPRPGAEPRP the value was 0.606.
For RRIRFRPPRLPRPRPRPHCLPRP the value was -0.377.
For RRIRRRPPRLPRPRPRPKSFPRP the value was 0.0604.
As for RRIRMRPPRLPRPRPRPTFKPRP, the “shrunken log2 fold change” value came out at 0.198.
For RRIRRRPPRLPRPRPRPWWDPRP the value was -0.0777; for RRIRSRPPRLPRPRPRPHCKPRP, -0.397.
For RRIRTRPPRLPRPRPRPNGRPRP the value was -0.0231; for RRIRFRPPRLPRPRPRPSILPRP, -0.442; for RRIRIRPPRLPRPRPRPFTFPRP, -0.148.
For RRIRNRPPRLPRPRPRPDFPPRP the value was -0.0345.
With RRIRKRPPRLPRPRPRPPQMPRP, the “shrunken log2 fold change” value turned out to be 0.278.
With RRIRWRPPRLPRPRPRPTVRPRP the figure was 1.14.
With RRIRIRPPRLPRPRPRPHKPPRP the figure was -0.00445.
With RRIRSRPPRLPRPRPRPQKVPRP the figure was -0.203.
Take RRIRTRPPRLPRPRPRPSLKPRP: the “shrunken log2 fold change” value was -0.359.
With RRIRLRPPRLPRPRPRPFWCPRP the figure was -0.0123; with RRIRFRPPRLPRPRPRPRFAPRP, 0.366; with RRIRTRPPRLPRPRPRPFPYPRP, -0.00797.
For RRIRMRPPRLPRPRPRPCRDPRP the value was 0.244; for RRIRNRPPRLPRPRPRPACKPRP, 0.169.
For RRIRSRPPRLPRPRPRPQIKPRP the value was 0.0447; for RRIRFRPPRLPRPRPRPMITPRP, -0.33; for RRIRMRPPRLPRPRPRPQRLPRP, 0.294.
On to RRIRDRPPRLPRPRPRPVIVPRP, for which the “shrunken log2 fold change” value stood at 0.0947.
With RRIRTRPPRLPRPRPRPKIQPRP the figure was -0.0936.
For RRIRSRPPRLPRPRPRPTIKPRP the value was -0.29; for RRIRPRPPRLPRPRPRPPMGPRP, 0.325; for RRIRMRPPRLPRPRPRPSYQPRP, -0.115.
Regarding RRIRHRPPRLPRPRPRPGWAPRP, the “shrunken log2 fold change” value was 0.344.
With RRIRSRPPRLPRPRPRPGHYPRP the figure was -0.645.
Consider RRIRKRPPRLPRPRPRPFEFPRP, for which the “shrunken log2 fold change” value is 0.0169.
With RRIRSRPPRLPRPRPRPKVPPRP, the “shrunken log2 fold change” value was found to be 0.0195.
For RRIRNRPPRLPRPRPRPQPDPRP the value was -0.0718; for RRIRDRPPRLPRPRPRPGHIPRP, -0.0814; for RRIRMRPPRLPRPRPRPHTHPRP, -0.00443.
With RRIRLRPPRLPRPRPRPKNSPRP the figure was -0.27.
With RRIRIRPPRLPRPRPRPMFYPRP the figure was -1.25.
As to RRIRDRPPRLPRPRPRPPDAPRP, the “shrunken log2 fold change” value is 0.65.
With RRIRIRPPRLPRPRPRPDMSPRP the figure was -0.00804; with RRIRERPPRLPRPRPRPDVEPRP, 0.084.
With RRIRRRPPRLPRPRPRPRMVPRP, the “shrunken log2 fold change” value amounted to 0.218.
On to RRIRGRPPRLPRPRPRPQLMPRP, for which the “shrunken log2 fold change” value came out at 0.509.
For RRIRLRPPRLPRPRPRPYQKPRP the value was 0.00934; for RRIRQRPPRLPRPRPRPDTQPRP, -0.401; for RRIRWRPPRLPRPRPRPDRGPRP, -0.0836.
For RRIRERPPRLPRPRPRPDVMPRP the value was 0.0164; for RRIRTRPPRLPRPRPRPELCPRP, -0.101; for RRIRVRPPRLPRPRPRPHIPPRP, -0.602.
For the sequence RRIRPRPPRLPRPRPRPEPHPRP, the “shrunken log2 fold change” value was found to be 0.298.
For RRIRDRPPRLPRPRPRPSFAPRP the value was 0.263.
With RRIRVRPPRLPRPRPRPWIVPRP the figure was -0.266; with RRIRWRPPRLPRPRPRPCRMPRP, -0.0166.
As to RRIRVRPPRLPRPRPRPACDPRP, the “shrunken log2 fold change” value turned out to be 0.284.
With RRIRFRPPRLPRPRPRPGRYPRP, the “shrunken log2 fold change” value is -0.0275.
With RRIRCRPPRLPRPRPRPVNDPRP the figure was -0.186.
In the case of RRIRERPPRLPRPRPRPCGWPRP, the “shrunken log2 fold change” value was found to be 0.154.
With RRIRYRPPRLPRPRPRPNNDPRP the figure was -1.14.
With RRIRPRPPRLPRPRPRPYQPPRP the figure was -0.125; with RRIRHRPPRLPRPRPRPKGNPRP, -0.124.
For RRIRMRPPRLPRPRPRPWVKPRP the value was -0.00556; for RRIRYRPPRLPRPRPRPFRHPRP, -0.16; for RRIRSRPPRLPRPRPRPKFEPRP, 0.12.
Turning to RRIRRRPPRLPRPRPRPVHSPRP, the “shrunken log2 fold change” value was -0.0233.
As for RRIRTRPPRLPRPRPRPCWLPRP, the “shrunken log2 fold change” value is -0.0724.
With RRIRSRPPRLPRPRPRPTVYPRP the figure was 0.0113.
With RRIRPRPPRLPRPRPRPTDLPRP the figure was -0.0166; with RRIRLRPPRLPRPRPRPFINPRP, -0.572; with RRIRVRPPRLPRPRPRPYFIPRP, -0.72.
With RRIRARPPRLPRPRPRPTGAPRP the figure was 0.906.
